Results reported in article PMC10864366, “Aggresome formation promotes ASK1/JNK signaling activation and stemness maintenance in ovarian cancer” (Nature Communications, 2024).

Molecular target: the molecule itself
Test: gel-shift assay (SDS-PAGE of heated and unheated protein, Coomassie stain); purified OTUD1 WT and Δ105–164 protein; heated (100 °C) and unheated samples separated by SDS-PAGE

B1: purified OTUD1 protein (WT), pET28a-mEGFP-OTUD1 (natural protein, UniProt Q5VV17 1-481, looked up)
chain: MQLYSSVCTHYPAGAPGPTAAAPAPPAAATPFKVSLQPPGAAGAAPEPETGECQPAAAAEHREAAAVPAAKMPAFSSCFEVVSGAAAPASAAAGPPGASCKPPLPPHYTSTAQITVRALGADRLLLHGPDPVPGAAGSAAAPRGRCLLLAPAPAAPVPPRRGSSAWLLEELLRPDCPEPAGLDATREGPDRNFRLSEHRQALAAAKHRGPAATPGSPDPGPGPWGEEHLAERGPRGWERGGDRCDAPGGDAARRPDPEAEAPPAGSIEAAPSSAAEPVIVSRSDPRDEKLALYLAEVEKQDKYLRQRNKYRFHIIPDGNCLYRAVSKTVYGDQSLHRELREQTVHYIADHLDHFSPLIEGDVGEFIIAAAQDGAWAGYPELLAMGQMLNVNIHLTTGGRLESPTVSTMIHYLGPEDSLRPSIWLSWLSNGHYDAVFDHSYPNPEYDNWCKQTQVQRKRDEELAKSMAISLSKMYIEQNACS
notes: OTUD1, wild type; also called purified native WT OTUD1 protein; source: pET28a-mEGFP-OTUD1 construct, purified
B1: binds.
